The target in one data set is POLγA F197S;POLγB (Homo sapiens?;Homo sapiens?, UniProt P54098;Q9UHN1 26-1239;25-485, F197S|). Put plainly: EMSA; 0.3 mM ddGTP, 3 mM dCTP; 10 fmol DNA in 15 µL; 25 mM Tris-HCl pH 7.8, 1 mM DTT, 0.1 mg/mL BSA, 10% glycerol, 0.3 mM ddGTP, 3 mM dCTP, no added Mg2+ stated; 10 min at ambient temperature; 6% native PAGE in 0.5x TBE. To be noted: protein: recombinant;recombinant; tags: 6xHis;6xHis; copies: 1;2; label: 32P 5' end of the 21-nt primer (S1); 21 bp duplex, 5' overhang 15 nt on S2 (template strand), recessed primer 3' end. (In EMSA bound probe runs differently from free probe, usually more slowly.)
Sequence of POLγA F197S;POLγB (P54098 26-1239 F197S, chain 1 of 2): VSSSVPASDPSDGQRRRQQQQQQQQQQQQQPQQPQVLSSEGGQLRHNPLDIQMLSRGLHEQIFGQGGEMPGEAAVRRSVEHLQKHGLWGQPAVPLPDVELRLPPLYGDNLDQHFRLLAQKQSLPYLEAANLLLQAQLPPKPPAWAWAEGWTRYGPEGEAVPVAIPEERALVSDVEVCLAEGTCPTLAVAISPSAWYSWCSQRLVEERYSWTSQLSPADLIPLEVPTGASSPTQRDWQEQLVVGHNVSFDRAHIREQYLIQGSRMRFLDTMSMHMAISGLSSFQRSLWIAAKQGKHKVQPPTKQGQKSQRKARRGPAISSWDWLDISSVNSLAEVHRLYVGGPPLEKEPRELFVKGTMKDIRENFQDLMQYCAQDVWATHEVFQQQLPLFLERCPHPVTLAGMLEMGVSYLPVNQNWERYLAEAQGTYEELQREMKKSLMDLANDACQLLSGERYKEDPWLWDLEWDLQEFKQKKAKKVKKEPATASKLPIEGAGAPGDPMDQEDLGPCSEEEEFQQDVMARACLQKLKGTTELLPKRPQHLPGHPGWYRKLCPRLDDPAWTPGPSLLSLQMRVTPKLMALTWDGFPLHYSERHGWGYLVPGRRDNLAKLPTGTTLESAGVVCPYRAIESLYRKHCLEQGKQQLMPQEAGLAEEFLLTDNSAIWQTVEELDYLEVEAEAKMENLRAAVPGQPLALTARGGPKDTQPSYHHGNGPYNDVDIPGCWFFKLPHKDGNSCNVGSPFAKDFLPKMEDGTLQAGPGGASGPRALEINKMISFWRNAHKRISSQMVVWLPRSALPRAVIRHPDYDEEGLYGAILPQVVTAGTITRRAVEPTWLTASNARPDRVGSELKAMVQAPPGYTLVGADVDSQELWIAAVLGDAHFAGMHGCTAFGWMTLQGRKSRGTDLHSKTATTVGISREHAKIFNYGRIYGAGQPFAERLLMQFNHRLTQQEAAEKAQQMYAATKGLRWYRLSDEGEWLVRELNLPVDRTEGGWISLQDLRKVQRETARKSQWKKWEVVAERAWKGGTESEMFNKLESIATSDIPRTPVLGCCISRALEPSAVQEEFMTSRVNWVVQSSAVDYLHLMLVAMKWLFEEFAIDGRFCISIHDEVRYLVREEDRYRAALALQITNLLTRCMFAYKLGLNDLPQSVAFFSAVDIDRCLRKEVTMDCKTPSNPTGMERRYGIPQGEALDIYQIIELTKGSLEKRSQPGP
Sequence of POLγA F197S;POLγB (Q9UHN1 25-485, chain 2 of 2): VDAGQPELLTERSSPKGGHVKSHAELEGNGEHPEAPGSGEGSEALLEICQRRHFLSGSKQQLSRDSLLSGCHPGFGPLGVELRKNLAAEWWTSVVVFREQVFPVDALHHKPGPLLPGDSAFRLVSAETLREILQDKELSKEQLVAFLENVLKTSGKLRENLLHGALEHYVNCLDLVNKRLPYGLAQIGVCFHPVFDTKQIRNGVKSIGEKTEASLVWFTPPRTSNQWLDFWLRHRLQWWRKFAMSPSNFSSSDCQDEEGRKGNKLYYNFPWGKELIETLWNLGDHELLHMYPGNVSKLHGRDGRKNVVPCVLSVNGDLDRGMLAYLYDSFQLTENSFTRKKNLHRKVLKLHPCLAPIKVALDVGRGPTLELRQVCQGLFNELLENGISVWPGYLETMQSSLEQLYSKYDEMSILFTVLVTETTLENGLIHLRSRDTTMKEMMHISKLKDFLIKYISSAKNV

A further data set deals with POLγA WT;POLγB (Homo sapiens?;Homo sapiens?, UniProt P54098;Q9UHN1 26-1239;25-485, |). Described as above. To be noted: protein: recombinant;recombinant; tags: 6xHis;6xHis; copies: 1;2; label: 32P 5' end of the 21-nt primer (S1); 21 bp duplex, 5' overhang 15 nt on S2 (template strand), recessed primer 3' end.
Sequence of POLγA WT;POLγB (P54098 26-1239, chain 1 of 2): as the sequence (P54098 26-1239 F197S, chain 1 of 2) above, with S172F counted along it
Sequence of POLγA WT;POLγB (Q9UHN1 25-485, chain 2 of 2): as the sequence (Q9UHN1 25-485, chain 2 of 2) above

B1: 21/36-nt primed template (dsDNA)
DNA 1: GCGGTCGAGTCTAGAGGAGCC
DNA 2: GACTACGTCTATCCGGGCTCCTCTAGACTCGACCGC
As to B1, the binding result with POLγA F197S;POLγB and with POLγA WT;POLγB was “binds” each time.

The record behind these values is publication PMC6975171, “Deep sequencing of mitochondrial DNA and characterization of a novel POLG mutation in a patient with arPEO”.
